What all share (conditions): protein: recombinant; tags: as P1; blunt
Data set [1] addresses T1, ComEAGs-K166A (Geobacillus stearothermophilus (ATCC …, UniProt A0A0K9HI54 60-207, K166A)).
T1 sequence: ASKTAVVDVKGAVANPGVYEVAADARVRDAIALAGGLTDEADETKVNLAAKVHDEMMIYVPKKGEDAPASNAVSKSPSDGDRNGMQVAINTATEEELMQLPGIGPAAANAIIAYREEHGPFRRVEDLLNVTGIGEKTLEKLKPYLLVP
Kind of data set: EMSA; 0.5 uM DNA, 1 mM MgCl2; MW-AUC: 10 mM Tris pH 8, 100 mM KCl, 20 C; EMSA: 10 mM Tris pH 8, 100 mM KCl, 2.5% glycerol, 0.5 mM EDTA, 1 mM MgCl2, room temperature 15 min, 8% native gel in.

Data set [2] addresses T2, ComEAGs-K201A (Geobacillus stearothermophilus (ATCC …, UniProt A0A0K9HI54 60-207, K201A)).
T2 sequence: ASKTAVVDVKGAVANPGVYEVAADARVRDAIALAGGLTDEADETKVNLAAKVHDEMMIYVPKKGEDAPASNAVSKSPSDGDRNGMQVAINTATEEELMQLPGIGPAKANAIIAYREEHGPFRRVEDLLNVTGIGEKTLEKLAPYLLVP
Described as above.

Data set [3] addresses T3, ComEAGs-A108Y (Geobacillus stearothermophilus (ATCC …, UniProt A0A0K9HI54 60-207, A108Y)).
T3 sequence: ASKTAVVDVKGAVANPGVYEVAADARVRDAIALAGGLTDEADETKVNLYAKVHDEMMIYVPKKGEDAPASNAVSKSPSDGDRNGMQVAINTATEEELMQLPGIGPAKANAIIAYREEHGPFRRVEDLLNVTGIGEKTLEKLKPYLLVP
Kind of data set: MW-AUC; 1.5 uM DNA, 10:1 protein:DNA; >90% DNA bound; ~4.7:1 complex, 6.3 S; MW-AUC: 10 mM Tris pH 8, 100 mM KCl, 20 C; EMSA: 10 mM Tris pH 8, 100 mM KCl, 2.5% glycerol, 0.5 mM EDTA, 1 mM MgCl2, room temperature 15 min, 8% native gel in. Background: In EMSA bound probe runs differently from free probe, usually more slowly.

Data set [4] deals with T3, ComEAGs-A108Y. Nature of the data set: MW-AUC; 1.5 uM DNA, 5:1 and 10:1 protein:DNA; >90% DNA bound; ~2:1 complex, 3.3-3.5 S; MW-AUC: 10 mM Tris pH 8, 100 mM KCl, 20 C; EMSA: 10 mM Tris pH 8, 100 mM KCl, 2.5% glycerol, 0.5 mM EDTA, 1 mM MgCl2, room temperature 15 min, 8% native gel in.

B1: EAGs30bp (dsDNA)
DNA 1: GCACTGTGAATATCACTACAGCAACCTTAG
DNA 2: CTAAGGTTGCTGTAGTGATATTCACAGTGC
With B1, in data set [1], the binding result is given as “no binding”. Besides, the binding signal in data set [2] was ~2 fold decrease in apparent affinity vs wild-type.

B2: EAGs40bp (dsDNA)
DNA 1: CGTTAGCACTGTGAATATCACTACAGCAACCTTAGAATCG
DNA 2: CGATTCTAAGGTTGCTGTAGTGATATTCACAGTGCTAACG
In the case of B2, the binding result in data set [3] is listed as “binds”.

B3: EAGs14bp (dsDNA)
DNA 1: GTAGGACCATCTGC
DNA 2: GCAGATGGTCCTAC
Turning to B3, the binding result in data set [4] is recorded as “binds”.

For the origin of these results see paper PMC9747964 (Nature Communications, 2022).
